In the DeepSol protein solubility set:

Assay: soluble on expression in E. coli; label from the status in PepcDB or PDB records

Row | Sequence | soluble on expression in E. coli
1 | GPGSMADYLREKVLESLGISFRETQNCRRWITEVTNMIWEAQPAELRTALCWTTPLGLVVRQPYKVRKEITLFTPHGCSRIPGDAFSAASRKQLTAIAPNLIHSLDATHLAMTAIEMQNLGLSMMAVHDSYWTYACDLPVLSKVLRQQFVTLYSKYDPLWELKEQWEEAYFMDLRRHGTLLPDPPKRGDLDLSVVLDSPYFFS | not soluble
2 | MKIPASSPQDTTNNNNNTNSTDSNHLSMDEHVMRSMDWDSIMKELELDDDSAPNSLKTGFTTTTTDSTILPLYAVDSNLPGFPDQIQPSDFESSSDVYPGQNQTTGYGFNSLDSVDNGGFDFIEDLIRVVDCVESDELQLAQVVLSRLNQRLRSPAGRPLQRAAFYFKEALGSFLTGSNRNPIRLSSWSEIVQRIRAIKEYSGISPIPLFSHFTANQAILDSLSSQSSSPFVHVVDFEIGFGGQYASLMREITEKSVSGGFLRVTAVVAEECAVETRLVKENLTQFAAEMKIRFQIEFVLMKTFEMLSFKAIRFVEGERTVVLISPAIFRRLSGITDFVNNLRRVSPKVVVFVDSEGWTEIAGSGSFRREFVSALEFYTMVLESLDAAAPPGDLVKKIVEAFVLRPKISAAVETAADRRHTGEMTWREAFCAAGMRPIQQSQFADFQAECLLEKAQVRGFHVAKRQGELVLCWHGRALVATSAWRF | soluble
3 | MCGVSLSVIIETLYFACRFRMVEKFLNQSVIWCRSGALRHCRTCGRGRAADTAFTLGDGSKRMGGCVQKEKNEAQKGEKGYRFRLFTGK | not soluble
4 | MIVIIDYDTGNTKSISKALDFIGLQNKISSDATEISQADGVILPGVGAYPEAMKELTRRGLNKTLKEIAAGGKPILGVCLGMQLLLESSNEHSFTNGLGLIPGHVEKLPEDPEFAVPHMGWNQLQIKRATPLTKQLDGEYVYYVHSYYANCPEEYIIATSGYSIEVPGMINKGNIYGAQFHPEKSGQIGLEILKGFKEVTYSCKSSQQ | not soluble
5 | ANAFLEELRPGSLERECKEEQCSFEEAREIFKDAERTKLFWISYSDGDQCASSPCQNGGSCKDQLQSYICFCLPAFEGRNCETHKDDQLICVNENGGCEQYCSDHTGTKRSCRCHEGYSLLADGVSCTPTVEYPCGKIPILEKRNASKPQGR | soluble
6 | MMNSTNKLSVIIPLYNAGDDFRTCMESLITQTWTALEIIIINDGSTDNSVEIAKYYAENYPHVRLLHQANAGASVARNRGIEVATGKYVAFVDADDEVYPTMYETLMTMALEDDLDVAQCNADWCFRETGETWQSIPTDRLRSTGVLTGPDWLRMGLSSRRWTHVVWMGVYRRDVIVKNNIKFIAGLHHQDIVWTTEFMFNALRARYTEQSLYKYYLHNTSVSRLHRQGNKNLNYQRHYIKITRLLEKLNRNYADKIMIYPEFHQQITYEALRVCHAVRKEPDILTRQRMIAEIFTSGMYKRLITNVRSVKVGYQALLWSFRLWQWRDKTRSHHRITRSAFNLRLEHHHHHH | not soluble
7 | MANTLFDKIWDAHVVQKVEEGPTQLYIDRLYCHEVTSPQAFAGLRARGVKVFRPDHVYCMPDHNTPTHDQDKPIEDPVSKTQVDTLAKNAKDFGLAHFGMMDKRNGIIHVVGPERGLTLPGMTIVCGDSHTSTHGAMGAVAFGIGTSEVEMVLASQCILQSRPKT | not soluble
8 | MSDTVVASAAVQAPAKTVKSPKAAKTTKVPKAKKPVAHPPYINMVTAAINGLKERKGSSKIAILKYITKNYNVGDQIIKINARLRDTLNKGVVSKALVQSVGTGASGRFRVTEKKAAAAKKPVAKKAATGEKKAKKPVAQKAATGEKKAKKTTATKTKKTADKVKKVKSPKKIAKPTAKKVAKSPAKKSAPKKAAAAKPAKKAVAPKT | soluble
9 | MAVMKVLIVEDETAAYENLTDILTEITPDIRIMANTESVTQTVGWLQSNPAPDLIFMDIHLSDGSAFAIFDRIELETPIIFTTAYDRYAIEAFKVNSIDYLLKPVKVEDVEHALEKYSKLTRQDLLQYLSQLTLLKPAPRYKDKLLIAHKDKLLPVNIKNISYFYATGKNTYVCLKDGNRYPYSKTLEQIASSLNPEDFIRANKQFIVARDSVTDITIWFDNRLLITLDTEVPERIYVSKNKASEFKTWLVNDK | not soluble
10 | MFQNSPMMYDWWNDTTKPKHQQPTLNVLSPWGAYFNHIGNELLHLKIASSTVSSGCSSPQQYSSARSVGNSLSNGSVVSTTSSDGDVQLSNKENSNDKSVGDKNGNTTTNKTTVEPPPPEEPPVRVRASHREKLSDSEVLNQLREIVNPSNPLGKYEMKKQIGVGASGTVFVANVAGSTDVVAVKRMAFKTQPKKEMLLTEIKVMKQYRHPNLVNYIESYLVDADDLWVVMDYLEGGNLTDVVVKTELDEGQIAAVLQECLKALHFLHRHSIVHRDIKSDNVLLGMNGEVKLTDMGFCAQIQPGSKRDTVVGTPYWMSPEILNKKQYNYKVDIWSLGIMALEMIDGEPPYLRETPLKAIYLIAQNGKPEIKQRDRLSSEFNNFLDKCLVVDPDQRADTTELLAHPFLKKAKPLSSLIPYIRAVREK | not soluble
11 | SLSEGYLSGLEYWNDIHWSCASYNEQVAGEKEEETNSVATLSYSSVDETQVRSLYVSCKSSGKFISSVHSRESQHSRSQRVTVLQTNPNPVFESPNLAAVEICRDASRETYLVPSSCKSICKNYNDLQIAGGQVMAINSVTTDFPSESSFEYGPLLKSSEIPLPMEDSISTQPSDFPQKPIQRYSSYWRITSIKEKSSLQMQNPISNAVLNEYLEQKVVELYKQYIMDTVFHDSSPTQILASELIMTSVDQISLQVSREKNLETSKARDIVFSRLLQLMSTEITEISTPSLHISQYSNVNP | not soluble
12 | MKSYIVIGAGILGASTAYHLAKEGASVMIIDRGDKGQATDAAAGIVCPWLSQRRNQKWYRLAKGGAKFYPSLIEELESYGETETGYARVGALWLHTDEQKLEQMEERALKRREDAPEMGEIVRLHPQEAKELFPPLVGEHHALYVSGAARVNGRAVRDALMNASQKRGAAYIRGNARLLFEGSRIIGVEADGTKYAAEAVIVTAGAWAGELLEPLGIKLLVTPQKGQLIHLEHPECDTSHWPVVMPPNNQYMLAFPGSRIVIGTTHEDEAGMDIRPTAGGMHELLDKALAVAPGLSTWTYIETRVGFRPRTPGFLPIFGPLPGFSGVYIANGLGSSGLTVGPYLGKELAKLVIGLPTELDPSDYDVASAVAPIVQ | not soluble
13 | MGSDKIHHHHHHMAEWAGGQGTQEQAVDKGPVTTDRPRPDRISPMNTARRLLRYLGHQRLPHVVVQIGCEILGAQRGALYLLDQNQEVTLIAQYPDDKDVQVPDDLDEARLSWHTLHDFLPQLVDCAHDHEARFHYCSGGDCWLTLSIPLQWEGQNIAVVQLSYKPDVTIDQTSMLGLVYEYAELAALTLVQHWRCIHPAHSSGTQAVPPSSLTNDYSFSSGVSLALAVSEAERARIARDLHDGARSAILGVQLHLEALRLACMQGDSLAIQDHLARGRAALDAIEQELSHIVRDLYPPQVGEADFPTVLVNLSERWSAATRIPVEYAFAPNIPVLETAQVIALYRIVQEALANCNRHAQASRVTISLACADDTLLLTVADNGRGGANLRGGGIGLLSMAQRAHAIGASFHIDSPPDQGTRIEVKLPLRRREPDVHVCSGDCHEGADE | not soluble
14 | TEAAAQPHALPADAPDIAPERDLLSKFDGLIAERQKLLDSGVTDPFAIVMEQVKSPTEAVIRGKDTILLGTYNYMGMTFDPDVIAAGKEALEKFGSGTCGSRMLNGTFHDHMEVEQALRDFYGTTGAIVFSTGYMANLGIISTLAGKGEYVILDADSHASIYDGCQQGNAEIVRFRHNSVEDLDKRLGRLPKEPAKLVVLEGVYSMLGDIAPLKEMVAVAKKHGAMVLVDEAHSMGFFGPNGRGVYEAQGLEGQIDFVVGTFSKSVGTVGGFVVSNHPKFEAVRLACRPYIFTASLPPSVVATATTSIRKLMTAHEKRERLWSNARALHGGLKAMGFRLGTETCDSAIVAVMLEDQEQAAMMWQALLDGGLYVNMARPPATPAGTFLLRCSICAEHTPAQIQTVLGMFQAAGRAVGVIGLEHHHHHH | soluble
15 | MMFNNNNWKLSVTDINLYENTVSLDGQPYPLSLAIKTLIPGYLSGLPSTSREAMELLEALAEAGVTIGNFFSNDLMTAYGRRQMNKRAEAERIAKEQRLQAERMREENMTDAEWQKELQRREQVKAERRTYGESLRSATHSAGRSRAAIVADLESGGNWMDSL | not soluble
